Results on 4 molecules are retold here after US12742015 (dated 2026).

Residue numbers refer to the chain shown, from its start.

One assay concerns the target T1, FcγRIIa 167R (human, UniProt P12318).
T1 chain: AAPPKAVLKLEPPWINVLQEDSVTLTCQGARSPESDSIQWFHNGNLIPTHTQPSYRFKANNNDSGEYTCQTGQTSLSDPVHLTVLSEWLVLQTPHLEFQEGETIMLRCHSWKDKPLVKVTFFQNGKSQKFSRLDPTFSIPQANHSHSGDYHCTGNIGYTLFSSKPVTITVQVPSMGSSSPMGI
Description: SPR.

Another assay addresses T2, FcγRIIb (human, UniProt P31994).
T2 chain: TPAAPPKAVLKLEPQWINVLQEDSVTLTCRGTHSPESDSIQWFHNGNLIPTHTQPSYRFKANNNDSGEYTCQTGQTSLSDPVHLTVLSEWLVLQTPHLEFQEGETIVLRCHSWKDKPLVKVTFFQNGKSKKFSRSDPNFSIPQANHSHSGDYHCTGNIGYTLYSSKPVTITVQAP
In words: SPR. A general note: Surface plasmon resonance follows binding to a sensor surface in real time, without labels.

In a further assay the target is FcRn (human, UniProt P55899). In words: SPR, pH 7.4.
Chain of FcRn (P55899 24-297, chain 1 of 2): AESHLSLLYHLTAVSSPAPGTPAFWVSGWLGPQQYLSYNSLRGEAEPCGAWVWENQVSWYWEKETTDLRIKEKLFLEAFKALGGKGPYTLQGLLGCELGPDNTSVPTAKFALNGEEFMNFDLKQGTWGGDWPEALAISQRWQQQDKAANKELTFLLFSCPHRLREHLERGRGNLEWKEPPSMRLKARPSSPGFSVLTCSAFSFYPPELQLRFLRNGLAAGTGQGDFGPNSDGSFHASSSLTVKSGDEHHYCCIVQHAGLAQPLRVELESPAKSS
Chain of FcRn (chain, as listed by the source, chain 2 of 2): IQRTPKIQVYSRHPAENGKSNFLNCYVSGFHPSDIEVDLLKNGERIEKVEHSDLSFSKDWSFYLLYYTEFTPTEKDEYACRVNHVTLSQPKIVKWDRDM
Assay [1] concerns the target T3, OX40 on T cells (human, UniProt P43489).
T3 chain: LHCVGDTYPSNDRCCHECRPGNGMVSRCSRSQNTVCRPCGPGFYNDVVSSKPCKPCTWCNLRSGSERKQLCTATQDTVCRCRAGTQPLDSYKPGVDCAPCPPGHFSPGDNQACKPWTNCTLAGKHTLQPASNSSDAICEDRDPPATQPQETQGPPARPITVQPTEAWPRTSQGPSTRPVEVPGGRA
Description: other, CD8+ T cells, apparent affinity.

In assay [2] the target is T3, OX40 on T cells. Description: other, CD4+ T cells, apparent affinity.

B1: MAB10 full (antibody)
chain 1: QVTLKESGPALVKPTQTLTLTCSFSGFSLSTSGMGVGWIRQPPGKALEWIAHIWWDDDKYYNTALKTRLTISKDTSKNQVVLTMTNMDPVDTATYYCARIDWDGFAYWGQGTLVTVSSASTKGPSVFPLAPSSKSTSGGTAALGCLVKDYFPEPVTVSWNSGALTSGVHTFPAVLQSSGLYSLSSVVTVPSSSLGTQTYICNVNHKPSNTKVDKKVEPKSCDKTHTCPPCPAPELLGGPSVFLFPPKPKDTLYITREPEVTCVVVDVSHEDPEVKFNWYVDGVEVHNAKTKPREEQYNSTYRVVSVLTVLHQDWLNGKEYKCKVSNKALPAPIEKTISKAKGQPREPQVYTLPPSRDELTKNQVSLTCLVKGFYPSDIAVEWESNGQPENNYKTTPPVLDSDGSFFLYSKLTVDKSRWQQGNVFSCSVMHEALHNHYTQKSLSLSPGK
chain 2: EIVLTQSPATLSLSPGERATLSCRASSSVSYMHWYQQKPGQAPRPWIYATSNRATGIPARFSGSGSGTDYTLTISSLEPEDFAVYYCQQFGAWPWTFGQGTKVEIKRTVAAPSVFIFPPSDEQLKSGTASVVCLLNNFYPREAKVQWKVDNALQSGNSQESVTEQDSKDSTYSLSSTLTLSKADYEKHKVYACEVTHQGLSSPVTKSFNRGEC
B1: the binding result with FcγRIIa 167R, in the assay with FcγRIIb and with FcRn was “no binding” each time.

B2: MAB1 full (antibody)
chain 1: not shown
chain 2: B1 chain 2
As for B2, the binding result with FcRn is recorded as “no binding”.

B3: GBR 830 full (antibody)
chain 1: not shown
chain 2: B1 chain 2 with F90W, G91S, A92S, W93N
Take B3: the binding result with FcRn is recorded as “no binding”.

B4: GBR 830 (OX40 binding) (antibody, V domains shown)
VH: QVTLKESGPALVKPTQTLTLTCSFSGFSLSTSGMGVGWIRQPPGKALEWIAHIWWDDDKYYNTALKTRLTISKDTSKNQVVLTMTNMDPVDTATYYCARIDWDGFAYWGQGTLVTVSS
VL: EIVLTQSPATLSLSPGERATLSCRASSSVSYMHWYQQKPGQAPRPWIYATSNRATGIPARFSGSGSGTDYTLTISSLEPEDFAVYYCQQWSSNPWTFGQGTKVEIK
In the case of B4, the values for the Kd in the assay with OX40 on T cells [1] and in the assay with OX40 on T cells [2] were 3.46 nM and 1.25 nM, respectively.
